Test results: article PMC8477557

Target: CD123 extracellular domain (human (cDNA of L-428 cells)) (UniProt P26951)
Assay: SPR
Conditions: bispecific antibody

Chain of CD123 extracellular domain (human (cDNA of L-428 cells)) (P26951 19-305): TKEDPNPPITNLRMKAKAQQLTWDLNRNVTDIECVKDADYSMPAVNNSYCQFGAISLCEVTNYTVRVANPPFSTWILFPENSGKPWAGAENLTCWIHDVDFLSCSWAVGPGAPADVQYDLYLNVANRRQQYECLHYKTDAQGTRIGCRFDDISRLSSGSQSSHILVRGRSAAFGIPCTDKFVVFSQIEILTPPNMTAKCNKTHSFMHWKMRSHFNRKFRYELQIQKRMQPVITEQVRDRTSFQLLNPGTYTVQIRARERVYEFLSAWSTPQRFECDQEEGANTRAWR

Row | Kd [nM] | Substance
1 | 2.74 | 1 × SIRPα-αCD123 fusion antibody (from UniProt P78324 31-149)
2 | 2.34 | 2 × SIRPα-αCD123 fusion antibody (from UniProt P78324 31-149; P78324 31-149)
